Measurements reported in paper PMC8847575, “HSL1 and BAM1/2 impact epidermal cell development by sensing distinct signaling peptides” (Nature Communications, 2022).
Square brackets hold non-standard residues; d marks the D form. Ends that are not written are not given here. Hyp = O=C(O)[C@@H]1C[C@@H](O)CN1

Columns and labels:
[1] = biological target: T1, HSL1 (HAESA-LIKE 1) ectodomain (Arabidopsis, UniProt Q9SGP2 17-618); test: ITC; with IDL3
T1 chain: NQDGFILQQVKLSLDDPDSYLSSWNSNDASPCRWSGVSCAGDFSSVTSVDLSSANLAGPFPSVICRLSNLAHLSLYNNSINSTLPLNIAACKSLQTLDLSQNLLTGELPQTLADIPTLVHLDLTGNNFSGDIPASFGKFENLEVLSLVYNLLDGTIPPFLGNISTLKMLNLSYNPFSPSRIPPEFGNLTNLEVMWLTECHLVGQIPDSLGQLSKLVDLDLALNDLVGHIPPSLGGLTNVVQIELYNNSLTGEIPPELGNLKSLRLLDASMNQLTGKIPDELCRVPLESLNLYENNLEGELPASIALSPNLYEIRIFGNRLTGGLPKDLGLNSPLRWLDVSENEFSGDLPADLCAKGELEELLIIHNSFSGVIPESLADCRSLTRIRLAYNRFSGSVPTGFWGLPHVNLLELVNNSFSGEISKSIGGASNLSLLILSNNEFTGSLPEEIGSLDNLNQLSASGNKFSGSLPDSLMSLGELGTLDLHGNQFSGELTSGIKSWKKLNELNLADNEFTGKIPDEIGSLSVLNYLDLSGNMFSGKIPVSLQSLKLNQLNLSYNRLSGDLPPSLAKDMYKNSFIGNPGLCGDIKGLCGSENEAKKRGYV

[2] = biological target: T2, biotinylated HSL1 ectodomain with Avi-tag (Arabidopsis, UniProt Q9SGP2 17-618, biotin on the Avi-tag (BirA)); test: GCI, with IDL1
T2 chain: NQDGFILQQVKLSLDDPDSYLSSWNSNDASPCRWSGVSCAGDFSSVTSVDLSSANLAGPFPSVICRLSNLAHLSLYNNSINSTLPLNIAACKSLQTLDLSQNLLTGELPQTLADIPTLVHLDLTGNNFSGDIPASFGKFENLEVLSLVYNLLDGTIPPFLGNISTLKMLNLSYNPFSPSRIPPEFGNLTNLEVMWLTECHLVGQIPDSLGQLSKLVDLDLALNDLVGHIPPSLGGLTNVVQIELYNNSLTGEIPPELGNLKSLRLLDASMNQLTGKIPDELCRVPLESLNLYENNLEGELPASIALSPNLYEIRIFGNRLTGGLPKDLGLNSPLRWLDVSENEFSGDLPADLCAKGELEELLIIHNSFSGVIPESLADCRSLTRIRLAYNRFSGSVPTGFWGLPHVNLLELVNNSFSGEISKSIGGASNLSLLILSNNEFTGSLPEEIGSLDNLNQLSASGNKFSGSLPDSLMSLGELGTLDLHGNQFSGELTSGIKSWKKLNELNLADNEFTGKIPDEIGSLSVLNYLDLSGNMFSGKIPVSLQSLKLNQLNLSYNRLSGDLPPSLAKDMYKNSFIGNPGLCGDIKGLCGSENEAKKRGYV

[3] = biological target: T2, biotinylated HSL1 ectodomain with …; test: GCI, with IDL2
[4] = biological target: T2, biotinylated HSL1 ectodomain with …; test: GCI, with IDL3
[5] = biological target: T2, biotinylated HSL1 ectodomain with …; test: in presence of IDL3
[6] = biological target: T1, HSL1 (HAESA-LIKE 1) ectodomain; test: ITC; with CLE9^N116S
[7] = biological target: T1, HSL1 (HAESA-LIKE 1) ectodomain; test: ITC; with IDA
[8] = biological target: T2, biotinylated HSL1 ectodomain with …; test: in presence of IDL4
[9] = biological target: T1, HSL1 (HAESA-LIKE 1) ectodomain; test: ITC; with IDL4
[10] = biological target: T2, biotinylated HSL1 ectodomain with …; test: in presence of IDL2
[11] = biological target: T2, biotinylated HSL1 ectodomain with …; test: in presence of IDL3
[12] = biological target: T2, biotinylated HSL1 ectodomain with …; test: in presence of IDL1
[13] = biological target: T2, biotinylated HSL1 ectodomain with …; test: in presence of IDL1
[14] = biological target: T2, biotinylated HSL1 ectodomain with …; test: GCI, with IDA
[15] = biological target: T1, HSL1 (HAESA-LIKE 1) ectodomain; test: ITC; with IDL1
[16] = biological target: T2, biotinylated HSL1 ectodomain with …; test: GCI, with IDL4
[17] = biological target: T2, biotinylated HSL1 ectodomain with …; test: GCI, with IDL3
[18] = biological target: T2, biotinylated HSL1 ectodomain with …; test: GCI, with IDL1
[19] = biological target: T1, HSL1 (HAESA-LIKE 1) ectodomain; test: ITC; with IDL2
[20] = biological target: T2, biotinylated HSL1 ectodomain with …; test: in presence of IDL4
[21] = biological target: T2, biotinylated HSL1 ectodomain with …; test: in presence of IDL2
[22] = biological target: T1, HSL1 (HAESA-LIKE 1) ectodomain; test: ITC
[23] = biological target: T3, HSL1 (HAESA-LIKE 1) ectodomain (Arabidopsis, UniProt Q9SGP2 17-618); test: ITC; peptide (75 to 600 µM) injected into 10 to 30 µM HSL1 or BAM1 ectodomain in the cell; 25 °C; 20 mM sodium citrate pH 5.0, 150 mM NaCl; N fitted to 1; conditions: both partners purified
T3 construct: HSL1 LRR receptor kinase ectodomain, Arabidopsis, residues 17-618, AT1G28440; codon optimised; secreted with an azurocidin or Drosophila BiP signal peptide; also called isolated HSL1 ectodomain; LRR-RK HSL1; source: Trichoplusia ni Tnao38 cells (baculovirus), secreted, purified (Ni2+, Strep-Tactin, TEV cleavage, second Ni2+, SEC)
T3 sequence (looked up): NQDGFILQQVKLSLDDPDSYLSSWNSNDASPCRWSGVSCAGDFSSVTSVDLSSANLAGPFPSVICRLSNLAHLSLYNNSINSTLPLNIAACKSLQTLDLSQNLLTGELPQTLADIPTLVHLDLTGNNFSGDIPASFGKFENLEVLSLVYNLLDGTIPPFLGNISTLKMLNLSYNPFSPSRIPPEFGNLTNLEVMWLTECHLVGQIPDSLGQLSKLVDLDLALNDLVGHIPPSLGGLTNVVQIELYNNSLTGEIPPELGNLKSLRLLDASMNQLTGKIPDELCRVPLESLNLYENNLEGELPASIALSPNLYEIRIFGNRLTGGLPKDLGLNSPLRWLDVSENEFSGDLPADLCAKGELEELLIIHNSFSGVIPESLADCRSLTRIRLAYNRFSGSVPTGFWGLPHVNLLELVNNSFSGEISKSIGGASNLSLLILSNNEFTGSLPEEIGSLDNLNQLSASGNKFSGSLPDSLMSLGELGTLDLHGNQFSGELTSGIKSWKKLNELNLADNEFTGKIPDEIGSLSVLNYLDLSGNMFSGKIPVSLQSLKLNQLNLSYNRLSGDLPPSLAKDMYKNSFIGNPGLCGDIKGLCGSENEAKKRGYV

[24] = biological target: T4, SERK1 (SOMATIC EMBRYOGENESIS RECEPTOR KINASE 1) ectodomain (Arabidopsis, UniProt Q94AG2 24-213); test: crystal structure; HSL1-CLE9-SERK1, mixed 1:1:1.5; 0.2 M K/Na tartrate, 20% PEG 3350; 2.87 Å; conditions: both partners purified
T4 construct: SERK1 ectodomain, Arabidopsis, residues 24-213, AT1G71830; codon optimised; secreted with an azurocidin or Drosophila BiP signal peptide; also called co-receptor SERK1; source: Trichoplusia ni Tnao38 cells (baculovirus), secreted, purified (Ni2+, Strep-Tactin, TEV cleavage, second Ni2+, SEC)
T4 sequence (looked up): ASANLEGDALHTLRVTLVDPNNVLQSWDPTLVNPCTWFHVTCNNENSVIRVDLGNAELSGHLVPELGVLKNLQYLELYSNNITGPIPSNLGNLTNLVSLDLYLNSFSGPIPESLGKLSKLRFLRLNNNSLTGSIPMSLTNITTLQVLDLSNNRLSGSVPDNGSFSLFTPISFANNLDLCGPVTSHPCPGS

[25] = biological target: T5, BAM1 (BARELY ANY MERISTEM 1) ectodomain (Arabidopsis, UniProt O49545 20-637); test: ITC; peptide (75 to 600 µM) injected into 10 to 30 µM HSL1 or BAM1 ectodomain in the cell; 25 °C; 20 mM sodium citrate pH 5.0, 150 mM NaCl; N fitted to 1; conditions: both partners purified
T5 construct: BAM1 LRR receptor kinase ectodomain, Arabidopsis, residues 20-637, AT5G65700; codon optimised; secreted with an azurocidin or Drosophila BiP signal peptide; also called BAM1 extracellular domain; BAM1 LRR ectodomain; source: Trichoplusia ni Tnao38 cells (baculovirus), secreted, purified (Ni2+, Strep-Tactin, TEV cleavage, second Ni2+, SEC)
T5 sequence (looked up): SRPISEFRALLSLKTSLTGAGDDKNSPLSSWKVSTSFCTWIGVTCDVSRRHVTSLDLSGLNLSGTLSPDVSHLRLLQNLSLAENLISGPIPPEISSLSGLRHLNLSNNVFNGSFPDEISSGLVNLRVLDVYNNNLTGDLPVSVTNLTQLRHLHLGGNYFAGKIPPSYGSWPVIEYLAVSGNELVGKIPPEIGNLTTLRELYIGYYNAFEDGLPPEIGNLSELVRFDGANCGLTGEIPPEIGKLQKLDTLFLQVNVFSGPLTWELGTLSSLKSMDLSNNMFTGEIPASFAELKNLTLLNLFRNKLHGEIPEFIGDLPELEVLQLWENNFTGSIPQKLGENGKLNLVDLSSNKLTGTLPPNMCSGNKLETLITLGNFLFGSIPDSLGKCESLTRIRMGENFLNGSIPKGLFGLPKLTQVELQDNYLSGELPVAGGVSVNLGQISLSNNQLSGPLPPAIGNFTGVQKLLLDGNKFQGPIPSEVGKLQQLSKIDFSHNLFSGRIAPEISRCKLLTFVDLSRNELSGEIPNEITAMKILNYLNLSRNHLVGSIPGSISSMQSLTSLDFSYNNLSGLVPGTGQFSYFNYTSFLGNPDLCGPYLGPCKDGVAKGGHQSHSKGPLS

B1: SERK1 (SOMATIC EMBRYOGENESIS RECEPTOR KINASE 1) ectodomain (domain or fragment)
chain: ASANLEGDALHTLRVTLVDPNNVLQSWDPTLVNPCTWFHVTCNNENSVIRVDLGNAELSGHLVPELGVLKNLQYLELYSNNITGPIPSNLGNLTNLVSLDLYLNSFSGPIPESLGKLSKLRFLRLNNNSLTGSIPMSLTNITTLQVLDLSNNRLSGSVPDNGSFSLFTPISFANNLDLCGPVTSHPCPGS
Kd [1]: 26 nM
Kd [2]: 12.5 nM
Kd [3]: 9 nM
koff [4]: 3e-05 s⁻¹
koff [5]: 0.00026 s⁻¹
Kd [6]: 170 nM
Kd [7]: 22 nM
Kd [8]: 10.7 nM
Kd [9]: 49 nM
Kd [10]: 1.5 nM
Kd [11]: 8.5 nM
Kd [12]: 12.5 nM
koff [13]: 0.00018 s⁻¹
Kd [14]: 9 nM
Kd [15]: 44 nM
Kd [16]: 12.5 nM
Kd [17]: 1 nM
koff [18]: 0.00018 s⁻¹
Kd [19]: 16 nM
koff [20]: 0.00013 s⁻¹
koff [21]: 0.00011 s⁻¹

B2: CLE9^N116S peptide (peptide, UniProt Q9FZE4 109-120, looked up)
peptide: RLVPSGPSPLHN
notes: CLE9 mature dodecapeptide with Asn116 changed to Ser; also called Asn116^CLE9 to a Ser
Kd [22]: 7150 nM
binding result [23]: binds

B3: CLE9 mature peptide (peptide, UniProt Q9FZE4 109-120, looked up)
peptide: RLV[Hyp]SG[Hyp]NPLHN
notes: CLE9 mature dodecapeptide, AT1G26600; printed residues R109, L110, V111, Hyp112, Ser113, Hyp115, Asn116; also called wild-type CLE9 peptide
binding result [24]: binds
Kd [25]: 100 nM
